Experimental data from patent US6284879A, “Transport associated protein splice variants” (The General Hospital Corporation, priority 1998, dated 2001).

T1: TAP1/TAP2iso heterodimer (human)
T1 chain 1: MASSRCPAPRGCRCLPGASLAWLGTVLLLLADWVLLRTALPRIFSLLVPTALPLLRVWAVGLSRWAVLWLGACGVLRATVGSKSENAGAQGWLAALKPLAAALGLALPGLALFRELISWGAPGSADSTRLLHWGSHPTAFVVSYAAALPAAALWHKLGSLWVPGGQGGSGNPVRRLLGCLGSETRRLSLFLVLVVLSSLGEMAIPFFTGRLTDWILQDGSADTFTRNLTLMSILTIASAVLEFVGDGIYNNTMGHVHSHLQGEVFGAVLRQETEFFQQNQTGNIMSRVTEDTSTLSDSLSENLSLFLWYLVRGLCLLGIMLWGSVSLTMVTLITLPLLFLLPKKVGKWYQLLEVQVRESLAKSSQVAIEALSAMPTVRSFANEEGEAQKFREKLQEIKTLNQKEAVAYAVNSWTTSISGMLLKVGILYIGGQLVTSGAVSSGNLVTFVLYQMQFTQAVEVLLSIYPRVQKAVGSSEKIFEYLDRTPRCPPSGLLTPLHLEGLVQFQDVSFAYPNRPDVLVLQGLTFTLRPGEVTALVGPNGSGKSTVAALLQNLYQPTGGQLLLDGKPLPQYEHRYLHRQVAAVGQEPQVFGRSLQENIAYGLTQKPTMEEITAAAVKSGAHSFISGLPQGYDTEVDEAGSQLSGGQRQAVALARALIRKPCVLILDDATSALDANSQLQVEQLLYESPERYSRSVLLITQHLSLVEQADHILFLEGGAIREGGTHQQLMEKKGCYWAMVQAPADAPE
T1 chain 2: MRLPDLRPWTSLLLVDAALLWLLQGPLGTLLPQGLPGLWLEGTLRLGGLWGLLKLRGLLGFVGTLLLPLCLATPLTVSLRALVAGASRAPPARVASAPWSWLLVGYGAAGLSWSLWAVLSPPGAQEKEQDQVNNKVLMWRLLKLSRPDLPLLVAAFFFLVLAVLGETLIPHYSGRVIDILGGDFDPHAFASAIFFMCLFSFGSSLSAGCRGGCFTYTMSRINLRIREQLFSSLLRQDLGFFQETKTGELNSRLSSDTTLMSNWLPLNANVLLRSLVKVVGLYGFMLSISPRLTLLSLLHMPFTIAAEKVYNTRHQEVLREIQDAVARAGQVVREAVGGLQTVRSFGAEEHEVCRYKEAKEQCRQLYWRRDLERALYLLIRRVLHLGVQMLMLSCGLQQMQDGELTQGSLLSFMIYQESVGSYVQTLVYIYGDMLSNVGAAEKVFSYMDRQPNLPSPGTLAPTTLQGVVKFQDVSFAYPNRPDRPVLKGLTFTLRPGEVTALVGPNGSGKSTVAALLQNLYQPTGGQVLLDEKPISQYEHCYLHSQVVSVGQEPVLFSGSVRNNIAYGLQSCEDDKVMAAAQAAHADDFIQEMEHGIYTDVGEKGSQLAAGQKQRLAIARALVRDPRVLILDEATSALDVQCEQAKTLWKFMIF

T2: TAP1/TAP2 heterodimer (human)
T2 chain 1: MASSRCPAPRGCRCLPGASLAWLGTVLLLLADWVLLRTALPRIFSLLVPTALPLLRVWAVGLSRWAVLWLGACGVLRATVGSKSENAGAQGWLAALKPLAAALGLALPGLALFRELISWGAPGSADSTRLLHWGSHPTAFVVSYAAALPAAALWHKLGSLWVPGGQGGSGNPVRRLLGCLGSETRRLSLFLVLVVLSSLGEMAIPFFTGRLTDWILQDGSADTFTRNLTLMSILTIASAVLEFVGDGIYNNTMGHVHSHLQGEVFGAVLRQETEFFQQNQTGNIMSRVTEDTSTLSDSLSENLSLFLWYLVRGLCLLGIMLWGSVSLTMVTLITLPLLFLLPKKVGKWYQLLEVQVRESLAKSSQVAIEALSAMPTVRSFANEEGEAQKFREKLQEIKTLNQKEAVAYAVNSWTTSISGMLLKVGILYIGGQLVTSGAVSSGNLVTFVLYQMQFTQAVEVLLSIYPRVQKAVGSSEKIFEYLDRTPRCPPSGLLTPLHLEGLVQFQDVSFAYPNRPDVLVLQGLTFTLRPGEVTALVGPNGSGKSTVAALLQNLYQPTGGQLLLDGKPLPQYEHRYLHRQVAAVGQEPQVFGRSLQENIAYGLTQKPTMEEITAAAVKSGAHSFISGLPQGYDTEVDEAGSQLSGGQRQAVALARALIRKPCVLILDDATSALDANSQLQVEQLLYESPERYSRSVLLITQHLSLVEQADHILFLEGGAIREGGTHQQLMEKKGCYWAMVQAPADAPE
T2 chain 2: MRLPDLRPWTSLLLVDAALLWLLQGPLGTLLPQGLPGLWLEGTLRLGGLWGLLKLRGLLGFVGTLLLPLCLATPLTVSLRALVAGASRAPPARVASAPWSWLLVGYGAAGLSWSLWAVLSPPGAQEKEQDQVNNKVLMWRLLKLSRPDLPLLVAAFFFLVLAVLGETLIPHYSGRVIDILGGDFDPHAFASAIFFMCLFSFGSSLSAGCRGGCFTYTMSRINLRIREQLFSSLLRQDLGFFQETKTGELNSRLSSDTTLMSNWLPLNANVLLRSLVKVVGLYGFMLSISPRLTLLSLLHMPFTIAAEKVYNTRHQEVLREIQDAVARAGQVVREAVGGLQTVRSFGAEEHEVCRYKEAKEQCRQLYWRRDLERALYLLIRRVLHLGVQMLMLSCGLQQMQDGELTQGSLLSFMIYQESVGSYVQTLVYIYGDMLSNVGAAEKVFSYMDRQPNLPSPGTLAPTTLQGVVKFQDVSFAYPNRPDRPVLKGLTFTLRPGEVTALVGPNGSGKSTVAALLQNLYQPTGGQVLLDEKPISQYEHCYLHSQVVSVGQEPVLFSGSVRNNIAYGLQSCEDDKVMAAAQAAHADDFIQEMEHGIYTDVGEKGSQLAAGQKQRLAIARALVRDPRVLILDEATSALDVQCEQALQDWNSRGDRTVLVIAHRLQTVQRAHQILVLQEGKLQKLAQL

B1: TAP2iso: TAP2 splice variant lacking exon 11 and containing exon 12; 653 amino acids (protein)
chain: MRLPDLRPWTSLLLVDAALLWLLQGPLGTLLPQGLPGLWLEGTLRLGGLWGLLKLRGLLGFVGTLLLPLCLATPLTVSLRALVAGASRAPPARVASAPWSWLLVGYGAAGLSWSLWAVLSPPGAQEKEQDQVNNKVLMWRLLKLSRPDLPLLVAAFFFLVLAVLGETLIPHYSGRVIDILGGDFDPHAFASAIFFMCLFSFGSSLSAGCRGGCFTYTMSRINLRIREQLFSSLLRQDLGFFQETKTGELNSRLSSDTTLMSNWLPLNANVLLRSLVKVVGLYGFMLSISPRLTLLSLLHMPFTIAAEKVYNTRHQEVLREIQDAVARAGQVVREAVGGLQTVRSFGAEEHEVCRYKEAKEQCRQLYWRRDLERALYLLIRRVLHLGVQMLMLSCGLQQMQDGELTQGSLLSFMIYQESVGSYVQTLVYIYGDMLSNVGAAEKVFSYMDRQPNLPSPGTLAPTTLQGVVKFQDVSFAYPNRPDRPVLKGLTFTLRPGEVTALVGPNGSGKSTVAALLQNLYQPTGGQVLLDEKPISQYEHCYLHSQVVSVGQEPVLFSGSVRNNIAYGLQSCEDDKVMAAAQAAHADDFIQEMEHGIYTDVGEKGSQLAAGQKQRLAIARALVRDPRVLILDEATSALDVQCEQAKTLWKFMIF
B2: TAP2: previously known TAP2 subunit (clone 0121, TAP2 F allele) (protein)
chain: MRLPDLRPWTSLLLVDAALLWLLQGPLGTLLPQGLPGLWLEGTLRLGGLWGLLKLRGLLGFVGTLLLPLCLATPLTVSLRALVAGASRAPPARVASAPWSWLLVGYGAAGLSWSLWAVLSPPGAQEKEQDQVNNKVLMWRLLKLSRPDLPLLVAAFFFLVLAVLGETLIPHYSGRVIDILGGDFDPHAFASAIFFMCLFSFGSSLSAGCRGGCFTYTMSRINLRIREQLFSSLLRQDLGFFQETKTGELNSRLSSDTTLMSNWLPLNANVLLRSLVKVVGLYGFMLSISPRLTLLSLLHMPFTIAAEKVYNTRHQEVLREIQDAVARAGQVVREAVGGLQTVRSFGAEEHEVCRYKEAKEQCRQLYWRRDLERALYLLIRRVLHLGVQMLMLSCGLQQMQDGELTQGSLLSFMIYQESVGSYVQTLVYIYGDMLSNVGAAEKVFSYMDRQPNLPSPGTLAPTTLQGVVKFQDVSFAYPNRPDRPVLKGLTFTLRPGEVTALVGPNGSGKSTVAALLQNLYQPTGGQVLLDEKPISQYEHCYLHSQVVSVGQEPVLFSGSVRNNIAYGLQSCEDDKVMAAAQAAHADDFIQEMEHGIYTDVGEKGSQLAAGQKQRLAIARALVRDPRVLILDEATSALDVQCEQALQDWNSRGDRTVLVIAHRLQTVQRAHQILVLQEGKLQKLAQL

Key:
[1] = system: HLA class I molecules in T2 cells; assay: HLA class I maturation, endo H sensitivity, pulse-chase in transfected T2 cells; type: cell-based, human; settings: expressed with TAP1 in T2 cells, relative to untransfected T2 cells
From the text: A preferred method of measuring the rate at which MHC class I antigen complexes exit the ER is through the quantification of MHC class I proteins of the Golgi apparatus sensitive to endoglycosidase H (endo H). Glycosylation of MHC class I proteins in the Golgi apparatus results in an increase in their molecular mass and an increase in resistance of MHC class I-linked glycans to endo H. By [^35 S]methionine pulse-labeling TAP- or TAPiso-expressing cell cultures and chasing with unlabeled methionine at various times, the rate of MHC class I maturation in the ER can be gauged by observing differences in endo H sensitivity, e.g., compared with a TAP-deficient cell line such as T2.
High density cells (1×10^8 cells/ml) were labeled for 15 minutes in the presence of 500 μCi [^35 S]methionine (Amersham), and then chased at the indicated times in the presence of 10 mM unlabeled methionine.
Cells were lysed in an ice-cold lysis buffer, and lysates were incubated overnight at 4° C. with protein A Sepharose beads (Pharmacia) and normal rabbit serum (1:200 dilution). The beads were removed by centrifugation and the resulting supernatant was incubated for 12 hours at 4° C. with protein A beads and monoclonal antibody W6/32 (American Type Culture Collection (ATCC) accession no. HB 95), which recognizes HLA class I molecules. […]

[2] = system: HLA class I (A2) on T2 cells; assay: restoration of surface expression of HLA class I (A2) on transfected T2 cells, flow cytometry; type: cell-based, human; settings: T2 cells transfected with the named cDNAs
Experimental: Plasmid DNAs were prepared using MAXI-PREP kits (Qiagen). TAP1- and TAP2-deficient T2 cells (donated by P. Cresswell, Howard Hughes Medical Institute, Yale University) (1-2×10^7 cells/ml) were transfected by electroporation with 10 μg of TAP1 and TAP2 or TAP2iso linear plasmid DNA in a 0.4-cm cuvette at 260 V and 960 μF. Subcloning and selection of transfectants were performed by culturing in the presence of hygromycin (250 μg/ml) or histidinol ([…]) for the PREP 4 and PREP8 vectors, respectively.
Immune complexes were detected with fluorescein isothiocyanate-conjugated goat anti-mouse IgG antibodies (Coulter, Hialeah, Fla.) and an Epics Elite flow cytometer (Coulter).
T2 cells were transfected with TAP1 cDNA in combination with TAP2 or TAPiso cDNAs as described above.

TAP1/TAP2iso heterodimer = biological target: T1, TAP1/TAP2iso heterodimer; assay: cell-based or functional assay
TAP1/TAP2 heterodimer = biological target: T2, TAP1/TAP2 heterodimer; assay: cell-based or functional assay

Row | Molecule | HLA class I maturation as reflected in decreasing endo H sensitivity [1] | surface expression of HLA/MHC class I ([2]; in words) | IC50 of inhibition of transport of 125I-labeled Peptide … (TAP1/TAP2iso heterodimer) [µM] | IC50 of inhibition of transport of 125I-labeled Peptide … (TAP1/TAP2 heterodimer) [µM] | Mean fluorescence of HLA class 1 (A2) Mean ± SD ([2]; four separate experiments, at least three stable clones)
1 | B1 | increasing HLA class I maturation | no effect | – | – | –
2 | RRYQNSTEL [unlabeled Peptide RRYQNSTEL] | – | – | ~0.15 | ~0.15 | –
3 | RGFFYTPKA [Peptide RGFFYTPKA] | – | – | 0.11 | 0.3 | –
4 | B2 | increasing HLA class I maturation | – | – | – | 6.11 ± 1.09
